# Reference: patent US20190218261A1, “TARGETED ENHANCED DNA DEMETHYLATION” (The Jackson Laboratory, priority 2016, published 2019)
# System: hMLH1 expression (methylation-silenced hMLH1 promoter) in HEK293T cells
# Assay: hMLH1 mRNA levels by TaqMan qRT-PCR in transfected HEK293T cells
# Format: cell-based, human
# Description: To test the system, HEK293T cells were transfected with Casilio-ME components including Ct or Nt-fusion TET1-effector and a combination of 3 or 2 sgRNAs. Relative levels of hMLH1 mRNA were determined in TaqMan assays by using RNA extracted from cells 60 hours post-transfection and GAPDH as endogenous control for normalization of qRT-PCR measurements.
# Cell culture and transfection. HEK293T cells were cultivated in Dulbecco's modified Eagle's medium (DMEM)(Sigma) with 10% fetal bovine serum (FBS)(Lonza), 4% Glutamax (Gibco), 1% Sodium Pyruvate (Gibco) and penicillin-streptomycin (Gibco) in an incubator set to 37° C. and 5% CO2. When indicated cells were treated with 2.5 μM or 5 μM 5-Azacytidine (sigma) as indicated with a daily change of medium containing freshly diluted drug. Cells were seeded into 12-well plates at 150,000 cells per well the day before being transfected with 100 ng of dCas9 construct, 100 ng of modified sgRNA construct and 200 ng of PUF-fusion with Attractene transfection reagent according to manufacturer's instructions (Qiagen). In dCas9-direct fusion experiments, cells were transfected with 200 ng dCas9-fusion constructs and 200 ng of modified sgRNA constructs. Transfected cells were harvested 60 hours after transfection, or otherwise indicated, and cell pellets were used for extractions of RNA, genomic DNA and protein.
# Quantitative RT-PCR analysis. Cells were harvested, washed with Dulbecco's phosphate-buffered saline (dPBS), centrifuged at 125×g for 5 min and then the flash-frozen pellets were stored at −80° C. RNA was extracted using RNeasy Plus Mini Kit according to the manufacturer's instructions (Qiagen). cDNA libraries were made using Applied Biosystems High Capacity RNA-to-cDNA kit with 200 ng to 1 μg of RNA. TaqMan gene expression assays (Applied Biosystems) were designed using GAPDH (Hs03929097, VIC) as endogenous control and hMLH1 (Hs00179866, FAM) as target. TaqMan Universal Master Mix II, with UNG (Applied Biosystems) was used for Quantitative PCR (qPCR), with 2 μl of diluted cDNA used for each reaction. Activation was analyzed with the Applied Biosystems ViiA7 instrument. Gene expression levels were calculated by “delta delta Ct” algorithm and normalized to control samples.
# HEK293T cells were cultivated in Dulbecco's modified Eagle's medium (DMEM) (Sigma) with 10% fetal bovine serum (FBS) (Lonza), 4% Glutamax (Gibco), 1% Sodium Pyruvate (Gibco) and penicillin-streptomycin (Gibco) in an incubator set to 37° C. and 5% CO2. Cells were seeded into 12-well plates at 150,000 cells per well the day before being transfected with 100 ng of dCas9 construct, 100 ng of modified sgRNA construct and 200 ng of PUF-fusion with Attractene transfection reagent according to manufacturer's instructions (Qiagen). Transfected cells were harvested 3 days after transfection, or otherwise indicated, and cell pellets were used for RNA extractions.
# Cells were harvested, washed with Dulbecco's phosphate-buffered saline (dPBS), centrifuged at 125×g for 5 min and then the flash-frozen pellets were stored at −80° C. RNA was extracted using RNeasy Plus Mini Kit according to the manufacturer's instructions (Qiagen). cDNA libraries were made using Applied Biosystems High Capacity RNA-to-cDNA kit with 200 ng to 2 μg of RNA. TaqMan gene expression assays (Applied Biosystems) were designed using GAPDH (Hs03929097, VIC) as endogenous control and hMLH1 (Hs00179866, FAM) as target. TaqMan Universal Master Mix II, with UNG (Applied Biosystems) was used for Quantitative PCR (qPCR), with 2 μl of diluted cDNA used for each reaction. Activation was analyzed with the Applied Biosystems ViiA7 instrument. Gene expression levels were calculated by “delta delta Ct” algorithm and normalized to control samples.
molecule,measurement,setting,value
TET1(CD)(H1671Y D1673A)-PUFa: catalytically dead TET1(CD) PUFa fusion; SEQ ID NO:110 (protein) MIDGGGGSDPKKKRKVDPKKKRKVDPKKKRKVGSTGSRNDGGGGSGGGGSGGGGSGRAGILPPKKKRKVSRGRSRLLEDFRNNRYPNLQLREIAGHIMEFSQDQHGSRFIQLKLERATPAERQLVFNEILQAAYQLMVDVFGNYVIQKFFEFGSLEQKLALAERIRGHVLSLALQMYGSRVIEKALEFIPSDQQNEMVRELDGHVLKCVKDQNGNHVVQKCIECVQPQSLQFIIDAFKGQVFALSTHPYGCRVIQRILEHCLPDQTLPILEELHQHTEQLVQDQYGNYVIQHVLEHGRPEDKSKIVAEIRGNVLVLSQHKFASNVVEKCVTHASRTERAVLIDEVCTMNDGPHSALYTMMKDQYANYVVQKMIDVAEPGQRKIVMHKIRPHIATLRKYTYGKHILAKLEKYYMKNGVDLGDPKKKRKVDPKKKRKVGGRGGGGSGGGGSGGGGSGPAELPTCSCLDRVIQKDKGPYYTHLGAGPSVAAVREIMENRYGQKGNAIRIEIVVYTGKEGKSSHGCPIAKWVLRRSSDEEKVLCLVRQRTGHHCPTAVMVVLIMVWDGIPLPMADRLYTELTENLKSYNGHPTDRRCTLNENRTCTCQGIDPETCGASFSFGCSWSMYFNGCKFGRSPSPRRFRIDPSSPLHEKNLEDNLQSLATRLAPIYKQYAPVAYQNQVEYENVARECRLGSKEGRPFSGVTACLDFCAHPYRAIHNMNNGSTVVCTLTREDNRSLGVIPQDEQLHVLPLYKLSDTDEFGSKEGMEAKIKSGAIEVLAPRRKKRTCFTQPVPRSGKKRAAMMTEVLAHKIRAVEKKPIPRIKRKNNSTTTNNSKPSSLPTLGSNTETVQPEVKSETEPHFILKSSDNTKTYSLMPSAPHPVKEASPGFSWSPKTASATPAPLKNDATASCGFSERSSTPHCTMPSGRLSGANAAAADGPGISQLGEVAPLPTLSAPVMEPLINSEPSTGVTEPLTPHQPNHQPSFLTSPQDLASSPMEEDEQHSEADEPPSDEPLSDDPLSPAEEKLPHIDEYWSDSEHIFLDANIGGVAIAPAHGSVLIECARRELHATTPVEHPNRNHPTRLSLVFYQHKNLNKPQHGFELNKIKFEAKEAKNKKMKASEQKDQAANEGPEQSSEVNELNQIPSHKALTLTHDNVVTVSPYALTHVAGPYNHWVID,hMLH1 expression without TET1 catalytic activity,GADD45A expressed with catalytically dead TET1(CD) fusion or without TET1(CD) fusion,no hMLH1 expression was detected
"NEIL2: NEIL2 glycosylase enhancer, tested fused to PUFa-TET1(CD) (either PUFa terminus) or to PUFc (protein) MLPEGPLVRKFHHLVSPFVGQQVVKTGGSSKKLQPASLQSLWLQDTQVHGKKLFLRFDLDEEMGPPGSSPTPEPPQKEVQKEGAADPKQVGEPSGQKTLDGSSRSAELVPQGEDDSEYLERDAPAGDAGRWLRVSFGLFGSVWVNDFSRAKKANKRGDWRDPSPRLVLHFGGGGFLAFYNCQLSWSSSPVVTPTCDILSEKFHRGQALEALGQAQPVCYTLLDQRYFSGLGNIIKNEALYRAGIHPLSLGSVLSASRREVLVDHVVEFSTAWLQGKFQGRPQHTQVYQKEQCPAGHQVMKEAFGPEDGLQRLTWWCPQCQPQLSEEPEQCQFS",increase in gene activation with NEIL2 in the PUFa-TET1CD fusion (repeat experiment),"MLH1 gRNAs, NEIL2 at either PUFa terminus",four-fold increase in gene activation
same,increase in hMLH1 expression with NEIL2 fused to PUFc,"co-expressed with PUFa-TET1(CD), gRNAs with PBSa/c, RT-quantitative PCR",7 fold
same,hMLH1 activation by DNA glycosylase two-in-one effector fusions (in words),"fusions to PUFa-TET1(CD), gRNA 5xPBSa, HEK293T, 3 days",enhanced activation of hMLH1
same,effect on TET1-mediated gene activation when gRNA lacked PBSc,gRNA scaffold with PBSa only,no effect on TET1-mediated gene activation
same,hMLH1 activation relative to TET1 effector alone,two-in-one fusion to PUFa-TET1(CD),3 fold
PUFc-NEIL2: SEQ ID NO:127 (protein) MIDGGGGSDPKKKRKVDPKKKRKVDPKKKRKVGSTGSRNDGGGGSGGGGSGGGGSGRAGILPPKKKRKVSRGRSRLLEDFRNNRYPNLQLREIAGHIMEFSQDQHGSRFIQLKLERATPAERQLVFNEILQAAYQLMVDVFGNYVIQKFFEFGSLEQKLALAERIRGHVLSLALQMYGSRVIEKALEFIPSDQQNEMVRELDGHVLKCVKDQNGNHVVQKCIECVQPQSLQFIIDAFKGQVFALSTHPYGCRVIQRILEHCLPDQTLPILEELHQHTEQLVQDQYGSYVIEHVLEHGRPEDKSKIVAEIRGNVLVLSQHKFANNVVQKCVTHASRTERAVLIDEVCTMNDGPHSALYTMMKDQYANYVVQKMIDVAEPGQRKIVMHKIRPHIATLRKYTYGKHILAKLEKYYMKNGVDLGDPKKKRKVDPKKKRKVGGRGGGGSGGGGSGGGGSGPALPEGPLVRKFHHLVSPFVGQQVVKTGGSSKKLQPASLQSLWLQDTQVHGKKLFLRFDLDEEMGPPGSSPTPEPPQKEVQKEGAADPKQVGEPSGQKTLDGSSRSAELVPQGEDDSEYLERDAPAGDAGRWLRVSFGLFGSVWVNDFSRAKKANKRGDWRDPSPRLVLHFGGGGFLAFYNCQLSWSSSPVVTPTCDILSEKFHRGQALEALGQAQPVCYTLLDQRYFSGLGNIIKNEALYRAGIHPLSLGSVLSASRREVLVDHVVEFSTAWLQGKFQGRPQHTQVYQKEQCPAGHQVMKEAFGPEDGLQRLTWWCPQCQPQLSEEPEQCQFS,stimulation of TET1(CD) mediated hMLH1 activation by independent NEIL2 module,"dual expression with PUFa-TET1(CD), gRNAs with both PBSa/c",significant stimulation of the TET1(CD) mediated hMLH1 activation
